Measurements reported in patent publication US20250382344A1, “Soluble GLP1/GIP/NPY2 Receptor Triple Agonists” (Boehringer Ingelheim International GmH, priority 2024, published 2025).
Where two headings read alike, the source gives them in different places. Each block holds one molecule with its values, some of them ahead of it. *1 amine or outer side, *2 acyl side, *3 side chain or, on linkers, in order; H or OH if unused. Where a SMILES comes first, the peptide text is derived from it. Where no end group is shown, it is not given here. Side-chain parts run from the residue outwards. [ ]: non-standard residue; d: D form. The star is where a group is joined. C20 diacid = O=C(O)CCCCCCCCCCCCCCCCCCC(=O)*; C18 diacid = O=C(O)CCCCCCCCCCCCCCCCC(=O)*; γGlu = O=C(O)[C@H](CCC(=O)[*:2])N[*:1]; εLys = N[C@@H](CCCCN[*:1])C(=O)[*:2]; AEEA = NCCOCCOCC(=O)O; Aib = CC(C)(N)C(=O)O; Ahx = NCCCCCC(=O)O

Legend:
hGLP1R = target: T1, hGLP1R (Homo sapiens, UniProt P43220); experiment: hGLP1R CreLuc assay in 0.5% and 100% plasma (HEK-293 CRE-luciferase reporter cells); assay type: cell-based; details: HEK-293 reporter cells
T1 construct: expressed in transfected cells; host or cells: HEK-293 CRE-luciferase reporter cells
Source text: CHO and HEK-293 recombinant cell lines express a luciferase reporter gene under control of the CAMP responsive element (CRE). As a second recombinant protein the GLP-1 and NPY2 receptors were expressed in the reporter gene HEK cells, and the GIP receptor was expressed in the reporter gene CHO cells, respectively. Stimulation of these recombinant cells with an agonist leads to an increase of intracellular CAMP levels. In the presence of CAMP, the transcription factor CRE binding protein (CREB) binds to the CRE and to the CREB binding protein (CBP), which leads to transcription of the luciferase reporter gene. Peptides upon serial-dilution in 100% DMSO were transferred into 384-well assay plates with 5 μl pre-dispensed assay buffer (1×HBSS, 20 mM HEPES, pH7.4 supplemented with 0.5% human plasma) using acoustic dispensing on a Labcyte ECHO. Cryo-preserved transgenic reporter gene cells were thawed in assay buffer. 20 μl (10.000 cells/well) were added to the plate with the peptides and incubated for 4 hours at 37° C. in a humidified incubator. Following incubation, assay plates are equilibrated to room temperature, followed by addition of 25 μl of Bright-Glo™ Luciferase reagent, incubation at room temperature for 10 minutes and analysis of luminescence (Envision Reader). […] EC50 values were calculated by non-linear regression using sigmoid concentration-response with variable slope.
The same assays were run in the presence of 100% plasma with no additional buffer constituents.

hGIPR = target: T2, hGIPR (Homo sapiens, UniProt P48546); experiment: hGIPR CreLuc assay in 0.5% and 100% plasma (CHO CRE-luciferase reporter cells); assay type: cell-based
T2 construct: expressed in transfected cells; host or cells: CHO CRE-luciferase reporter cells
T2 sequence (P48546 22-466): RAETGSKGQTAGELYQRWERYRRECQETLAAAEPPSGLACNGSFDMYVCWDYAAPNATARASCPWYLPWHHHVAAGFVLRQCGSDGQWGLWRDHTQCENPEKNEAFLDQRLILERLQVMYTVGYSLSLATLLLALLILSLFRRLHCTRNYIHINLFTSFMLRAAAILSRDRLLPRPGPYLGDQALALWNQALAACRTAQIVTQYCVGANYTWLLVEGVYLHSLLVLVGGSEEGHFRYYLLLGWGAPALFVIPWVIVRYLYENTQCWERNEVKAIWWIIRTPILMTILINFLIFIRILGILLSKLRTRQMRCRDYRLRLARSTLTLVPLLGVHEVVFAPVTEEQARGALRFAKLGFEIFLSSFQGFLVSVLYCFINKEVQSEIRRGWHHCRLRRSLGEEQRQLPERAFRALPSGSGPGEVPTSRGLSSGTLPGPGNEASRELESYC

[1] = target: T3, human neuropeptide Y2 receptor (human, UniProt P49146 1-381); experiment: cell-based or functional assay
T3 sequence (looked up): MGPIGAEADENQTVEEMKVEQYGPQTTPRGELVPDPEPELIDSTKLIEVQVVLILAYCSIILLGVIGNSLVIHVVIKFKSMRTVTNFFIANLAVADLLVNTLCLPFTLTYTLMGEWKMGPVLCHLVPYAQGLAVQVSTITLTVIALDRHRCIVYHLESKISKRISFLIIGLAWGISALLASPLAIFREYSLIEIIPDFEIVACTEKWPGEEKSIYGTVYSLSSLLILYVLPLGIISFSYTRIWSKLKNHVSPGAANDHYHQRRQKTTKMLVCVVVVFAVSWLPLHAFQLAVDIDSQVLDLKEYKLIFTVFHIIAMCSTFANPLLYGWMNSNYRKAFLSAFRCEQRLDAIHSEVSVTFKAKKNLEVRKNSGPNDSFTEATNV

[2] = target: T4, human neuropeptide Y2 receptor (human, UniProt P49146 1-381); experiment: cell-based or functional assay; remark: listed apart in the source
T4 sequence (looked up): T3 sequence (looked up)

[3] = 0.5% human plasma, read-out: hGIPR 0.5% hP
[4] = 100% human plasma, read-out: hGIPR 100% hP

T1 sequence (P43220 24-463): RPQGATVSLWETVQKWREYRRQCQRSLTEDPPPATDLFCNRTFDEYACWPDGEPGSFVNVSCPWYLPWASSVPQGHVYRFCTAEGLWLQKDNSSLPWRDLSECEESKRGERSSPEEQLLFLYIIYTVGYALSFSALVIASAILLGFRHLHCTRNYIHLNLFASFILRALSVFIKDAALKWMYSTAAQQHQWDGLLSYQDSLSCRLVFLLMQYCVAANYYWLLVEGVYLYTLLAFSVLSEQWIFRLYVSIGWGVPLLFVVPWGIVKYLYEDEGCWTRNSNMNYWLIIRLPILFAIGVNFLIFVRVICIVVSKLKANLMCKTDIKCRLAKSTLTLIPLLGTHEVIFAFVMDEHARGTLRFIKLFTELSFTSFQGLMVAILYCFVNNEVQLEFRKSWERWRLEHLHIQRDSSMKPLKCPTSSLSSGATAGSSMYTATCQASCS

Molecule: Y[Aib]EGTFTSDYSI[Aib]LEKQAQ[Aib]AFVRHLINK([Ahx-γGlu-γGlu-γGlu-γGlu-γGlu-γGlu-C20 diacid])[Aib]TRQRY-NH2 [Compound 157]
- EC50, CreLuc reporter, 0.5% hP [2]: 15.9 nM
- EC50, CreLuc reporter, 100% hP [2]: 135 nM

Molecule: Y[Aib]EGTFTSDYSI[Aib]LDEQAQ[Aib]AFVRHLINK([εLys-γGlu-γGlu-γGlu-γGlu-γGlu-C18 diacid])[Aib]TRQRY-NH2 [Compound 108]
- EC50, CreLuc reporter, 0.5% hP [2]: 20.3 nM
- EC50, CreLuc reporter, 100% hP [2]: 120 nM

Molecule: Y[Aib]EGTFTSDYSI[Aib]LEKQAQ[Aib]AFVRHLINK([Ahx-γGlu-γGlu-γGlu-γGlu-γGlu-γGlu-C18 diacid])[Aib]TRQRY-NH2 [Compound 9]
- EC50, CreLuc reporter, 0.5% hP [1]: 25.1 nM
- EC50, CreLuc reporter, 100% hP [1]: 75.4 nM

B1: Compound 38 (peptide)
peptide: YXEGTFTSDYSIXLEKQAQXAFVRHLINKXTRQRY
modifications: Aib at 2, 13, 20, 30; Lys29 epsilon-amino acylated with C18DA-gGlu-gGlu-gGlu-gGlu-gGlu-gGlu-gGlu; C-terminal amide
- EC50, CreLuc reporter, 100% hP [1]: 141 nM

Results, then the molecule that gave them:

- EC50 (hGLP1R; 100% human plasma, read-out: hGLP1R 100% hP): 8 nM
- EC50 (hGIPR; [3]): 0.3 nM
- EC50 (hGIPR; [4]): 3.4 nM
Molecule: CC[C@H](C)[C@H](NC(=O)[C@H](C)NC(=O)[C@H](Cc1ccc(O)cc1)NC(=O)[C@H](CC(=O)O)NC(=O)[C@H](CO)NC(=O)[C@@H](NC(=O)[C@H](Cc1ccccc1)NC(=O)[C@@H](NC(=O)CNC(=O)[C@H](CCC(=O)O)NC(=O)C(C)(C)NC(=O)[C@@H](N)Cc1ccc(O)cc1)[C@@H](C)O)[C@@H](C)O)C(=O)NC(C)(C)C(=O)N[C@@H](CC(C)C)C(=O)N[C@@H](CCC(=O)O)C(=O)N[C@@H](CCCCN)C(=O)N[C@@H](CCC(N)=O)C(=O)N[C@@H](C)C(=O)N[C@@H](CCC(N)=O)C(=O)NC(C)(C)C(=O)N[C@@H](C)C(=O)N[C@@H](Cc1ccccc1)C(=O)N[C@H](C(=O)N[C@@H](CCCNC(=N)N)C(=O)N[C@@H](Cc1c[nH]cn1)C(=O)N[C@@H](CC(C)C)C(=O)N[C@H](C(=O)N[C@@H](CC(N)=O)C(=O)N[C@@H](CCCCNC(=O)[C@@H](N)CCCCNC(=O)CC[C@H](NC(=O)CC[C@H](NC(=O)CC[C@H](NC(=O)CC[C@H](NC(=O)CC[C@H](NC(=O)CC[C@H](NC(=O)CCCCCCCCCCCCCCCCC(=O)O)C(=O)O)C(=O)O)C(=O)O)C(=O)O)C(=O)O)C(=O)O)C(=O)NC(C)(C)C(=O)N[C@H](C(=O)N[C@@H](CCCNC(=N)N)C(=O)N[C@@H](CCC(N)=O)C(=O)N[C@@H](CCCNC(=N)N)C(=O)N[C@@H](Cc1ccc(O)cc1)C(N)=O)[C@@H](C)O)[C@@H](C)CC)C(C)C [Compound 142, Y-Aib-E-G-T-F-T-S-D-Y-A-I-Aib-L-E-K-Q-A-Q-Aib-A-F-V-R-H-L-I-N-K(1,3)-Aib-T-R-Q-R-Y-NH2.C18DA-gGlu-gGlu-gGlu-gGlu-gGlu-gGlu-eLys(1,2)]

- EC50 (hGLP1R; 0.5% human plasma, read-out: hGLP1R 0.5% hP): 0.3 nM
- EC50 (hGIPR; [3]): 0.2 nM
- EC50 (hGIPR; [4]): 5 nM
Molecule: CC[C@H](C)[C@H](NC(=O)[C@H](CC(C)C)NC(=O)[C@H](Cc1c[nH]cn1)NC(=O)[C@H](CCCNC(=N)N)NC(=O)[C@@H](NC(=O)[C@H](Cc1ccccc1)NC(=O)[C@H](C)NC(=O)C(C)(C)NC(=O)[C@H](CCC(N)=O)NC(=O)[C@H](C)NC(=O)[C@H](CCC(N)=O)NC(=O)[C@H](CCCNC(=N)N)NC(=O)[C@H](CC(=O)O)NC(=O)[C@H](CC(C)C)NC(=O)C(C)(C)NC(=O)[C@@H](NC(=O)[C@H](CO)NC(=O)[C@H](Cc1ccc(O)cc1)NC(=O)[C@H](CC(=O)O)NC(=O)[C@H](CO)NC(=O)[C@@H](NC(=O)[C@H](Cc1ccccc1)NC(=O)[C@@H](NC(=O)CNC(=O)[C@H](CCC(=O)O)NC(=O)C(C)(C)NC(=O)[C@@H](N)Cc1ccc(O)cc1)[C@@H](C)O)[C@@H](C)O)[C@@H](C)CC)C(C)C)C(=O)N[C@@H](CC(N)=O)C(=O)N[C@@H](CCCCNC(=O)[C@@H](N)CCCCNC(=O)CC[C@H](NC(=O)CC[C@H](NC(=O)CC[C@H](NC(=O)CC[C@H](NC(=O)CC[C@H](NC(=O)CC[C@H](NC(=O)CCCCCCCCCCCCCCCCC(=O)O)C(=O)O)C(=O)O)C(=O)O)C(=O)O)C(=O)O)C(=O)O)C(=O)NC(C)(C)C(=O)N[C@H](C(=O)N[C@@H](CCCNC(=N)N)C(=O)N[C@@H](CCC(N)=O)C(=O)N[C@@H](CCCNC(=N)N)C(=O)N[C@@H](Cc1ccc(O)cc1)C(N)=O)[C@@H](C)O [Compound 147, Y-Aib-E-G-T-F-T-S-D-Y-S-I-Aib-L-D-R-Q-A-Q-Aib-A-F-V-R-H-L-I-N-K(1,3)-Aib-T-R-Q-R-Y-NH2.C18DA-gGlu-gGlu-gGlu-gGlu-gGlu-gGlu-eLys(1,2)] (H-Y[Aib]EGTFTSDYSI[Aib]LDRQAQ[Aib]AFVRHLINK([εLys-γGlu-γGlu-γGlu-γGlu-γGlu-γGlu-C18 diacid])[Aib]TRQRY-NH2)

- EC50, CreLuc reporter, 0.5% hP [1]: 19.9 nM
- EC50, CreLuc reporter, 100% hP [1]: 72.6 nM
Molecule: Y[Aib]EGTFTSDYSI[Aib]LEKQAQ[Aib]AFVRHLINK([AEEA-γGlu-γGlu-γGlu-γGlu-γGlu-γGlu-C18 diacid])[Aib]TRQRY-NH2 [Compound 47]

- EC50, CreLuc reporter, 0.5% hP [2]: 27.7 nM
Molecule: Y[Aib]EGTFTSDYSI[Aib]LEKQAQ[Aib]AFVRHLINK([γGlu-γGlu-γGlu-εLys-γGlu-γGlu-γGlu-C18 diacid])[Aib]TRQRY-NH2 [Compound 168]
